Reference: publication doi:10.1101/2025.08.25.672131

Assays:
CREB-bZIP-L332V (human) = assay: other fluorescence titration
CREB-bZIP-L318V (human) [1] = assay: stopped-flow fluorescence out-competition
CREB-bZIP-L318V (human) [2] = assay: other fluorescence titration
[3] = target: CREB-bZIP (bZIP domain of human CREB1, residues 277-339 of CREB-A) (human); assay: stopped-flow intrinsic tyrosine fluorescence, urea refolding kinetics

Work on CREB-bZIP-L332V (domain or fragment) yielded a fold increase of Kd,M-M against CREB-bZIP (CREB-bZIP-L332V (human)) of 100 fold.

CREB-bZIP-L318V (domain or fragment) gave a k+,M-M.CRE (association of a monomer with CRE-bound monomer, inferred) (CREB-bZIP-L318V (human) [1]) of 5e+09 M⁻¹ s⁻¹, a k-,M-M.CRE (dissociation of a monomer from the CRE-bound dimer) (CREB-bZIP-L318V (human) [1]) of 0.079 s⁻¹ and a fold increase of Kd,M-M against CREB-bZIP (CREB-bZIP-L318V (human) [2]) of 1000 fold.

“CREB-bZIP (bZIP domain of human CREB1, residues 277-339 of CREB-A) (domain or fragment)” was tested, and the Kd [3] was 5.7 nM, the koff [3] was 0.029 s⁻¹ and the kon [3] was 1e+07 M⁻¹ s⁻¹.
